The source of these data is PMC4715562 (Proteins, 2015).

The data set concerns the molecule itself. Kind of data set: crystal structure.

B1: Xrcc4-MyH7-1590-1657 (domain or fragment, human)
chain: GGSGERKISRIHLVSEPSITHFLQVSWEKTLESGFVITLTDGHSAWTGTVSESEISQEADDMAMEKGKYVGELRKALLSGAGPADVYTFNFSKESCYFFFEKNLKDVSFRLGSFNLEKVENPAEVIRELICYCLDTTAENQAKNEHHLRVVDSLQTSLDAETRSRNEALRVKKKMEGDLNEMEIQLSHANRMAAEAQKQVKSLQSLLKDTQIQL
modifications: reductively methylated
Take B1: the binding result is listed as “binds”.
